Target: RHAU140-RNase HI fusion (Homo sapiens (RHAU) / Bacillus …, UniProt Q9H2U1 53-192+=SGGGSGGGSGGGSGGG+Q9KEI9:59-196, internal_change)
Assay: EMSA; 10 uM DNA, 50 uM protein; 100 mM K+; Native 10% PAGE in 1X TBE, 20 mM potassium phosphate, 100 mM KCl, pH 7.0; UV shadowing; temperature not stated
Conditions: protein: recombinant

Sequence of RHAU140-RNase HI fusion (Q9H2U1 other isoform, or with tags, fused parts or gaps): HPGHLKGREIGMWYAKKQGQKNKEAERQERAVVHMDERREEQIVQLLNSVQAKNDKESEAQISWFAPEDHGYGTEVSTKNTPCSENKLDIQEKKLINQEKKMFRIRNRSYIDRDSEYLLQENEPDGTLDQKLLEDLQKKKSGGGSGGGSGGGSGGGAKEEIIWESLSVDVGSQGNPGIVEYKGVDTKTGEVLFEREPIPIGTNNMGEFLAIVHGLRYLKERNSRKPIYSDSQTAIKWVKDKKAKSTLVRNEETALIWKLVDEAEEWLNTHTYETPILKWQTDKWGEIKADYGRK

Binder	binding result (single strand)	binding result (parallel G4 with 3' single-stranded tail)
TTGACTAAGTGCCTTAGTTCAACGACGACGGCATCATC (ssDNA) [B0]	no binding	–
TTGGGTGGGTGGGTGGGTTCAACGACGACGGCATCATC (structured_DNA) [B1]	–	binds

Source: PMC6520340, “Development of a ribonuclease containing a G4-specific binding motif for programmable RNA cleavage”
